Measurements: US20110166062A1 (INDIANA UNIVERSITY RESEARCH AND TECHNOLOGY, published 2011)
Bridges are numbered along the chain shown (N, C = ends). Primed or numbered codes have the meaning given here. Where no end group is shown, it is not given here. [ ]: non-standard residue; d: D form. PEG 40 kDa″ = polyethylene glycol of 40 kDa covalently attached to the side chain; Aib = CC(C)(N)C(=O)O

T1: GIP receptor (UniProt P48546 22-466)
T1 sequence (looked up): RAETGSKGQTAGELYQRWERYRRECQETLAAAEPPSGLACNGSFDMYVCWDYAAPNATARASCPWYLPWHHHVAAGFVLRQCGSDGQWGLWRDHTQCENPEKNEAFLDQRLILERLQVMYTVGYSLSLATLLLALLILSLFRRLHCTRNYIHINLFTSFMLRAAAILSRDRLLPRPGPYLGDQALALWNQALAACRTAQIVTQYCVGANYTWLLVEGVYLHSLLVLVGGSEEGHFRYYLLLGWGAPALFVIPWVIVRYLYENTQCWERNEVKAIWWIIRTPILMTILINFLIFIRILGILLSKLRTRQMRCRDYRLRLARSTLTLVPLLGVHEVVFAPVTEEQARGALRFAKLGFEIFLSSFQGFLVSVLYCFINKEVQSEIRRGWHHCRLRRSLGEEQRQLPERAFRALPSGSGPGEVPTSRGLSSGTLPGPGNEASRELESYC

T2: GIP receptor (UniProt P48546 22-466)
T2 sequence (looked up): T1 sequence (looked up)

B1: mt-198 (peptide)
peptide: [Aib]QGTFTSDYSIYLDEQAAKEFVNWLLAG-NH2
modifications: lactam 15-19; N-terminus assumed
SMILES: CC[C@H](C)[C@H](NC(=O)[C@H](CO)NC(=O)[C@H](Cc1ccc(O)cc1)NC(=O)[C@H](CC(=O)O)NC(=O)[C@H](CO)NC(=O)[C@@H](NC(=O)[C@H](Cc1ccccc1)NC(=O)[C@@H](NC(=O)CNC(=O)[C@H](CCC(N)=O)NC(=O)C(C)(C)N)[C@@H](C)O)[C@@H](C)O)C(=O)N[C@@H](Cc1ccc(O)cc1)C(=O)N[C@@H](CC(C)C)C(=O)N[C@@H](CC(=O)O)C(=O)N[C@H]1CCC(=O)NCCCC[C@@H](C(=O)N[C@@H](CCC(=O)O)C(=O)N[C@@H](Cc2ccccc2)C(=O)N[C@H](C(=O)N[C@@H](CC(N)=O)C(=O)N[C@@H](Cc2c[nH]c3ccccc23)C(=O)N[C@@H](CC(C)C)C(=O)N[C@@H](CC(C)C)C(=O)N[C@@H](C)C(=O)NCC(N)=O)C(C)C)NC(=O)[C@H](C)NC(=O)[C@H](C)NC(=O)[C@H](CCC(N)=O)NC1=O
B2: mt-201 (peptide)
peptide: Y[Aib]QGTFTSDYSIYLDEEAVRLFVNWLLAGGPSSGAPPPS-NH2
modifications: N-terminus assumed
SMILES: CC[C@H](C)[C@H](NC(=O)[C@H](CO)NC(=O)[C@H](Cc1ccc(O)cc1)NC(=O)[C@H](CC(=O)O)NC(=O)[C@H](CO)NC(=O)[C@@H](NC(=O)[C@H](Cc1ccccc1)NC(=O)[C@@H](NC(=O)CNC(=O)[C@H](CCC(N)=O)NC(=O)C(C)(C)NC(=O)[C@@H](N)Cc1ccc(O)cc1)[C@@H](C)O)[C@@H](C)O)C(=O)N[C@@H](Cc1ccc(O)cc1)C(=O)N[C@@H](CC(C)C)C(=O)N[C@@H](CC(=O)O)C(=O)N[C@@H](CCC(=O)O)C(=O)N[C@@H](CCC(=O)O)C(=O)N[C@@H](C)C(=O)N[C@H](C(=O)N[C@@H](CCCNC(=N)N)C(=O)N[C@@H](CC(C)C)C(=O)N[C@@H](Cc1ccccc1)C(=O)N[C@H](C(=O)N[C@@H](CC(N)=O)C(=O)N[C@@H](Cc1c[nH]c2ccccc12)C(=O)N[C@@H](CC(C)C)C(=O)N[C@@H](CC(C)C)C(=O)N[C@@H](C)C(=O)NCC(=O)NCC(=O)N1CCC[C@H]1C(=O)N[C@@H](CO)C(=O)N[C@@H](CO)C(=O)NCC(=O)N[C@@H](C)C(=O)N1CCC[C@H]1C(=O)N1CCC[C@H]1C(=O)N1CCC[C@H]1C(=O)N[C@@H](CO)C(N)=O)C(C)C)C(C)C
B3: mt-376 (peptide)
peptide: YXEGTFTSDYSIYLDKQAAXEFVNWLLAGGPSSGAPPPSKC
modifications: C-terminal amide; acylation at position 40 of each monomer, no spacer; monomers linked via a PEG at C-terminal Cys residues
B4: mt-377 (peptide)
peptide: B3 peptide
modifications: C-terminal amide; acylation at position 40 of each monomer, no spacer; monomers linked via a PEG at C-terminal Cys residues
B5: mt-356 (peptide)
peptide: Y[Aib]QGTFTSDYSIYLDKQAA[Aib]EFVNWLMNGGPSSGAPPPSK-NH2
modifications: N-terminus assumed
SMILES: CC[C@H](C)[C@H](NC(=O)[C@H](CO)NC(=O)[C@H](Cc1ccc(O)cc1)NC(=O)[C@H](CC(=O)O)NC(=O)[C@H](CO)NC(=O)[C@@H](NC(=O)[C@H](Cc1ccccc1)NC(=O)[C@@H](NC(=O)CNC(=O)[C@H](CCC(N)=O)NC(=O)C(C)(C)NC(=O)[C@@H](N)Cc1ccc(O)cc1)[C@@H](C)O)[C@@H](C)O)C(=O)N[C@@H](Cc1ccc(O)cc1)C(=O)N[C@@H](CC(C)C)C(=O)N[C@@H](CC(=O)O)C(=O)N[C@@H](CCCCN)C(=O)N[C@@H](CCC(N)=O)C(=O)N[C@@H](C)C(=O)N[C@@H](C)C(=O)NC(C)(C)C(=O)N[C@@H](CCC(=O)O)C(=O)N[C@@H](Cc1ccccc1)C(=O)N[C@H](C(=O)N[C@@H](CC(N)=O)C(=O)N[C@@H](Cc1c[nH]c2ccccc12)C(=O)N[C@@H](CC(C)C)C(=O)N[C@@H](CCSC)C(=O)N[C@@H](CC(N)=O)C(=O)NCC(=O)NCC(=O)N1CCC[C@H]1C(=O)N[C@@H](CO)C(=O)N[C@@H](CO)C(=O)NCC(=O)N[C@@H](C)C(=O)N1CCC[C@H]1C(=O)N1CCC[C@H]1C(=O)N1CCC[C@H]1C(=O)N[C@@H](CO)C(=O)N[C@@H](CCCCN)C(N)=O)C(C)C

molecular target: GLP-1 receptor (UniProt P43220 24-463, limits assumed); experiment: cell-based or functional assay

In order of rising “EC50” value:
1. B2  0.012 nM
2. Y[Aib]QGTFTSDYSIYLDEQAAKEFVNWLLAGKGKKNWLKHNITQC-NH2 (lactam 16-20) [mt-207]  0.073 nM
3. Y[Aib]EGTFTSDYSIYLDEQAAKEFVNWLLAGKGKKNWLKHNITQC-NH2 (lactam 16-20) [mt-206]  0.095 nM
4. Y[Aib]EGTFTSDYSIYLDEQAAKEFVNWLLAGKGKKNWLKHNITQC(PEG 40 kDa″)-NH2 (lactam 16-20) [mt-208]  0.262 nM
5. Y[Aib]QGTFTSEYSKYLDEQAAKEFVNWLLAGGPSSGAPPPSC-NH2 (lactam 9-12, 16-20; not fully specified) [mt-209]  2.34 nM
6. B1  13.2 nM

In order of rising relative activity:
1. B1  0.17%
2. Y[Aib]QGTFTSEYSKYLDEQAAKEFVNWLLAGGPSSGAPPPSC-NH2 (lactam 9-12, 16-20; not fully specified) [mt-209]  1.33%
3. Y[Aib]QGTFTSDYSIYLDEQAAKEFVNWLLAGKGKKNWLKHNITQC-NH2 (lactam 16-20) [mt-207]  42.5%
4. B2  192%

molecular target: glucagon receptor (UniProt P47871 26-477, limits assumed); experiment: cell-based or functional assay
Target sequence in this assay (P47871 26-477 limits assumed): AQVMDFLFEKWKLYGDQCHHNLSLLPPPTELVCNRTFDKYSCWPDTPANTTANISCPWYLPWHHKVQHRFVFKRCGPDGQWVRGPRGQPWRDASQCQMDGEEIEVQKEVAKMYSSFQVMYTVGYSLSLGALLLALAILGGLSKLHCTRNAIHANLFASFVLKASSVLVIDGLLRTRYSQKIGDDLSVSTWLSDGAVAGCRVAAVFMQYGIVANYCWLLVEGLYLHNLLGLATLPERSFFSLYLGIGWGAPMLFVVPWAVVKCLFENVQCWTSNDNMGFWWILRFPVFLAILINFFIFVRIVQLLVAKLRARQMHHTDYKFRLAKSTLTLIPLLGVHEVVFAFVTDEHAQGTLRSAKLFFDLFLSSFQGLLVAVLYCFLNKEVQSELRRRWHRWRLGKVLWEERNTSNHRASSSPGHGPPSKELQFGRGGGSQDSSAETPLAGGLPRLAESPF

In order of rising “EC50” value:
1. Y[Aib]QGTFTSDYSIYLDEQAAKEFVNWLLAGKGKKNWLKHNITQC-NH2 (lactam 16-20) [mt-207]  3.2 nM
2. Y[Aib]QGTFTSEYSKYLDEQAAKEFVNWLLAGGPSSGAPPPSC-NH2 (lactam 9-12, 16-20; not fully specified) [mt-209]  4.66 nM
3. B1  11.9 nM
4. B2  26.7 nM
5. Y[Aib]EGTFTSDYSIYLDEQAAKEFVNWLLAGKGKKNWLKHNITQC-NH2 (lactam 16-20) [mt-206]  331 nM
6. Y[Aib]EGTFTSDYSIYLDEQAAKEFVNWLLAGKGKKNWLKHNITQC(PEG 40 kDa″)-NH2 (lactam 16-20) [mt-208]  448 nM

In order of falling relative activity:
1. Y[Aib]QGTFTSDYSIYLDEQAAKEFVNWLLAGKGKKNWLKHNITQC-NH2 (lactam 16-20) [mt-207]  1.31%
2. Y[Aib]QGTFTSEYSKYLDEQAAKEFVNWLLAGGPSSGAPPPSC-NH2 (lactam 9-12, 16-20; not fully specified) [mt-209]  0.9%
3. B1  0.53%
4. B2  0.24%
5. Y[Aib]EGTFTSDYSIYLDEQAAKEFVNWLLAGKGKKNWLKHNITQC-NH2 (lactam 16-20) [mt-206]  0.01%
6. Y[Aib]EGTFTSDYSIYLDEQAAKEFVNWLLAGKGKKNWLKHNITQC(PEG 40 kDa″)-NH2 (lactam 16-20) [mt-208]  0.01%

molecular target: T1, GIP receptor; experiment: cell-based or functional assay

In order of rising “EC50” value:
1. B2  0.072 nM
2. Y[Aib]EGTFTSDYSIYLDEQAAKEFVNWLLAGKGKKNWLKHNITQC-NH2 (lactam 16-20) [mt-206]  0.115 nM
3. Y[Aib]EGTFTSDYSIYLDEQAAKEFVNWLLAGKGKKNWLKHNITQC(PEG 40 kDa″)-NH2 (lactam 16-20) [mt-208]  0.313 nM
4. Y[Aib]QGTFTSDYSIYLDEQAAKEFVNWLLAGKGKKNWLKHNITQC-NH2 (lactam 16-20) [mt-207]  0.622 nM
5. Y[Aib]QGTFTSEYSKYLDEQAAKEFVNWLLAGGPSSGAPPPSC-NH2 (lactam 9-12, 16-20; not fully specified) [mt-209]  1.05 nM
6. B1  149 nM

In order of falling relative activity:
1. B2  44.4%
2. Y[Aib]QGTFTSDYSIYLDEQAAKEFVNWLLAGKGKKNWLKHNITQC-NH2 (lactam 16-20) [mt-207]  2.41%
3. Y[Aib]QGTFTSEYSKYLDEQAAKEFVNWLLAGGPSSGAPPPSC-NH2 (lactam 9-12, 16-20; not fully specified) [mt-209]  1.42%
4. B1  0.02%

molecular target: GLP-1 receptor (UniProt P43220 24-463, limits assumed); experiment: cell-based or functional assay; remark: another data set of the same source

In order of rising “EC50, nM; GLP-1 Receptor” value:
1. B5  0.0048 nM
2. B4  0.0076 nM
3. B3  0.0106 nM

B5 was tested, and the “relative activity; GLP-1 Receptor” value was 224%.

molecular target: glucagon receptor (UniProt P47871 26-477, limits assumed); experiment: cell-based or functional assay; remark: another data set of the same source
Target sequence in this assay (P47871 26-477 limits assumed): as the sequence (P47871 26-477 limits assumed) above

With B5 the “EC50, nM; Glucagon Receptor” value was 0.0869 nM.

For B5, the “relative activity; Glucagon Receptor” value was 126%.

molecular target: T2, GIP receptor; experiment: cell-based or functional assay

In order of falling “EC50, nM; GIP Receptor” value:
1. B5  0.053 nM
2. B3  0.0068 nM
3. B4  0.0031 nM

B5 was tested, and the “relative activity; GIP Receptor” value was 25.7%.
